Test results as given in patent publication US20220089663A1, “PROTEINS AND FLUOROPHORE-CONTAINING COMPOUNDS SELECTIVE FOR NaV1.7” (MEMORIAL SLOAN KETTERING CANCER CENTER, priority 2019, published 2022).

Legend:
Test in all cases: cell-based or functional assay
hNav1.6 (human) = hNav1.6 (human) (UniProt Q9UQD0)
hNav1.5 (human) = hNav1.5 (human) (UniProt Q14524)
hNav1.3 (human) = hNav1.3 (human) (UniProt Q9NY46)
hNav1.4 (human) = hNav1.4 (human) (UniProt P35499)
hNav1.2 (human) = hNav1.2 (human) (UniProt Q99250)
hNav1.7 (human) = hNav1.7 (human) (UniProt Q15858)
hNav1.1 (human) = hNav1.1 (human) (UniProt P35498)

synthetic Hsp1a (peptide)
fold selectivity of hNav1.7 over this channel (hNav1.6 (human)): > 100 fold | pIC50, whole-cell patch clamp (QPatch 16X) (hNav1.6 (human)): < 6 M | fold selectivity of hNav1.7 over this channel (hNav1.5 (human)): > 100 fold | pIC50, whole-cell patch clamp (QPatch 16X) (hNav1.5 (human)): < 6 M | fold selectivity of hNav1.7 over this channel (hNav1.3 (human)): > 100 fold | pIC50, whole-cell patch clamp (QPatch 16X) (hNav1.3 (human)): < 6 M | fold selectivity of hNav1.7 over this channel (hNav1.4 (human)): > 100 fold | pIC50, whole-cell patch clamp (QPatch 16X) (hNav1.4 (human)): < 6 M | fold selectivity of hNav1.7 over this channel (hNav1.2 (human)): 28 fold | pIC50, whole-cell patch clamp (QPatch 16X) (hNav1.2 (human)): 6.52 M | pIC50, whole-cell patch clamp (QPatch 16X) (hNav1.7 (human)): 7.98 M | recovery of currents after washout (hNav1.7 (human)): 10 min | fold selectivity of hNav1.7 over this channel (hNav1.1 (human)): 40 fold | pIC50, whole-cell patch clamp (QPatch 16X) (hNav1.1 (human)): 6.39 M

µ-theraphotoxin-Hsp1a (peptide)
IC50, automated whole-cell patch clamp (hNav1.7 (human)): 13 nM
